{
  "source": "paper PMC3223204",
  "about": "“Implantation Serine Proteinase 1 Exhibits Mixed Substrate Specificity that Silences Signaling via Proteinase-Activated Receptors” (PLoS ONE, 2011)",
  "target": "T1, rat PAR4 (Rattus norvegicus, UniProt Q920E0)",
  "T1 construct": "rat platelets that express only functional PAR4 but neither PAR1 nor PAR2; endogenous in cells; host or cells: rat platelets from platelet-rich plasma",
  "T1 sequence (Q920E0 17-395)": "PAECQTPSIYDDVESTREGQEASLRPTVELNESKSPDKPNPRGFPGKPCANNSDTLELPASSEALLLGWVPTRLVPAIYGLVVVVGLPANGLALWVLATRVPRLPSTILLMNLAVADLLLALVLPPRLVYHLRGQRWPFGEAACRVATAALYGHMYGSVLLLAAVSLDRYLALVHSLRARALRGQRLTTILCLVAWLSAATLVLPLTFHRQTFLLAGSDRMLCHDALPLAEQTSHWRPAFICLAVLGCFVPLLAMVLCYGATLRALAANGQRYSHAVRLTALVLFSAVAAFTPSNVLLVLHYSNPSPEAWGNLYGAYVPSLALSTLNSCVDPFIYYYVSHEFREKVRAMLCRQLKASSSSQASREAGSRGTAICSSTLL",
  "assay": "Calcium signaling assay, PAR4 activation/disarming in rat platelets",
  "format": "cell-based",
  "experimental": "Cell lines (grown to about 85% confluence and disaggregated with calcium-free isotonic phosphate-buffered saline containing 0.2 mM EDTA) and rat platelets (harvested from platelet-rich anti-coagulated plasma) were prepared and used as previously described. Cells were incubated for 25 min at room temperature with Fluo-3 acetoxymethyl ester (final concentration, 22 µM) along with 0.4 mM sulfinpyrazone. Cells were washed twice by centrifugation (using the following buffer without calcium) and resuspended in the calcium signaling buffer: 150 mM NaCl, 3 mM KCl, 1.5 mM CaCl2, 20 mM HEPES, 10 mM dextrose, and 0.25 mM sulfinpyrazone, pH 7.4.\nFluorescence was measured at 24 °C with an excitation wavelength of 480 nm and an emission recorded at 530 nm using an Aminco Bowman Series 2 Luminescence spectrometer (ThermoSpectronic Model FA354, Spectronic Unicam, Rochester, NY). The fluorescence signals caused by the addition of test agonists (trypsin, PAR-activating peptide or rISP1, added to 2 ml of a cell suspension of ~3 x 10^5 cells/ml) were compared with the fluorescence peak height yielded by replicate cell suspensions treated with 2 µM ionophore A23187. This concentration of A23187 was at the plateau of its concentration-response curve for a fluorescence response in Fluo-3-loaded cultured cells. Under these conditions, the calculated values for intracellular calcium in the HEK and KNRK cells were [picture] 30 nM under basal conditions and about 340 nM upon exposure to A23187 [8, 9].\nPrevious work has shown that the fluorescence response of a cell preparation, as a percentage relative to the signal generated by 2 µM A23187, is a valid reference standard for the comparative determination of calcium signals for all PAR agonists. The cellular calcium response was therefore recorded as a percentage of the response generated by 2 µM ionophore A23187 [6]. Concentration-effect curves for recombinant enzyme (rISP1) were obtained by measuring the calcium signals generated by measuring the effects (receptor activation or disarming) of increasing enzyme concentrations in replicate cell suspensions (2 ml).\nReceptor activation was monitored as an enzyme-stimulated increase in fluorescence emission (E530). As outlined in the following paragraph, receptor disarming or disabling was ascertained by the ability of ISP1 pre-treatment of the cells to abrogate the calcium signal caused by the subsequent addition of either a PAR-activating enzyme (thrombin for PARs 1 & 4; trypsin for PAR2) or a PAR-activating peptide (a reduced response to the activating peptide reflects receptor disabling). […]",
  "data": [
    {"molecule": "ISP1: recombinant implantation serine proteinase 1 expressed in Pichia pastoris, also known as Mouse Prss28 (protein, UniProt Q924N9 27-274, looked up, recombinant, Pichia pastoris-expressed, recombinant implantation serine proteinase 1 expressed in Pichia pastoris, also known as Mouse Prss28) Serine protease 28: KPVGIVGGQRTPPGKWPWQVSLRMYSYEVNSWVHICGGSIIHPQWILTAAHCIQSQDADPAVYRVQVGEVYLYKEQELLNISRIIIHPDYNDVSKRFDLALMQLTALLVTSTNVSPVSLPKDSSTFDSTDQCWLVGWGNLLQRVPLQPPYQLHEVKIPIQDNKSCKRAYRKKSSDEHKAVAIFDDMLCAGTSGRGPCFGDSGGPLVCWKSNKWIQVGVVSKGIDCSNNLPSIFSRVQSSLAWIHQHIQ", "values": [
      {"measurement": "Cellular response to PAR4-activating peptide after ISP1 pre-treatment", "setting": "AYPGKF-NH2 (100 µM), concentration-dependent", "result": "diminished"},
      {"measurement": "Activation of a calcium signal via PAR4", "setting": "enzyme alone", "result": "did not activate a calcium signal"},
      {"measurement": "residual PAR4 activity triggered by thrombin", "setting": "pre-treatment with 5 Units/ml ISP1, then thrombin (0.5 units/ml)", "result": "~75", "unit": "%"},
      {"measurement": "residual PAR4 activity (% of control)", "setting": "pre-treatment with 20 units ISP1/ml, then thrombin (0.5 units/ml)", "result": "~20", "unit": "%"}
    ]}
  ]
}
